Literature values as cited in paper PMC4632993.
pKd: −log10 of the molar value.

Target: ubiquitin (Homo sapiens) (UniProt P0CG47)

MDA-9/Syntenin, sequence (O00560 2-298): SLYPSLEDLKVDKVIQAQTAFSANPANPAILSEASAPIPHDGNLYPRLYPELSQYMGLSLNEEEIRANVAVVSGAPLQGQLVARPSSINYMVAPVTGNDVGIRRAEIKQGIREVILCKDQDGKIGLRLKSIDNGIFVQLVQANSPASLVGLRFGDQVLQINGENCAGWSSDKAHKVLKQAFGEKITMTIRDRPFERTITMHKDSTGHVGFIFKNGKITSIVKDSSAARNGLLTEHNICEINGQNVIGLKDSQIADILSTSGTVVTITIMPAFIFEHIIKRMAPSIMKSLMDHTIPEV

pKd: 4.56
Substance: MDA-9/Syntenin (from UniProt O00560)
